Tests used:
[1] = tested on: monoclonal antibody MV-001; assay: In vitro binding assay (ELISA), BSA-coupled peptides, parental antibody MV-001; design: species or system C57/B16 mice; details: Table 1C; peptide-BSA on plate, compared to original epitope
Procedure: Peptides derived from Phage Display as well as variants thereof were coupled to BSA and bound to ELISA plates (1 μM; as indicated in the respective figures) and subsequently incubated with the monoclonal antibody that was used for the screening procedure to analyse binding capacity of identified peptides.
Legend to Table 1C: the binding capacity is coded by the following binding code: 1:X describes the dilution factor of the parental AB

[2] = tested on: monoclonal antibody MV-001; assay: In vitro inhibition assay (ELISA), MV-001 binding to original epitope; design: species or system C57/B16 mice; details: Table 2C; OD at 10 ug peptide compared to original peptide
Procedure: Different amounts of peptides (concentrations ranging from 10 μg to 0.08 μg; serial dilutions; for MV-002: concentrations ranging from 5 μg to 0.03 μg; serial dilutions), derived from Phage Display were incubated with the monoclonal antibody that was used for the screening procedure. Peptides diminishing subsequent binding of the antibody to the original epitope coated on ELISA plates were considered as inhibiting in this assay.
Legend to Table 2C: the inhibition capacity is coded by the following code: Weak inhibition means more peptide is required to lower AB binding than with the original epitope; strong inhibition means similar peptide amounts are required for mimotope and original epitope for lowering AB binding. Mimotopes are compared to the original peptide as standard. OD at 10 ug peptide used in the assay is used to calculate the competition capacity compared to original peptide.

[3] = biological target: monoclonal antibody MV-002; assay: ELISA on peptide-BSA; code 3 = strong binding, OD halfmax 1:>320000
[4] = biological target: monoclonal antibody MV-001; assay: ELISA on peptide-BSA; code 2 = medium binding, OD halfmax 1:4000-20000

CHEFRH [p4802] was tested, and the “Binding Capacity” value [1] was 3 (strong binding :>20000) and the “Inhibition Capacity” value [2] was 2 (strong inhibition (as original epitope; OD of 10 ug peptide below 2 times of original peptide)).

For LPFRHGC [p4388], the “Binding Capacity” value [1] was 2 (medium binding :4000-20000) and the “Inhibition Capacity” value [2] was 1 (Weaker than original epitope (OD of 10 ug peptide below 3 times of original peptide)).

In the case of TSFRHGC [p4382], the “Binding Capacity” value [1] is reported as 2 (medium binding :4000-20000) and the “Inhibition Capacity” value [2] is reported as 1 (Weaker than original epitope (OD of 10 ug peptide below 3 times of original peptide)).

In the case of NWFPHPC [p4392], the “Binding Capacity” value [1] is reported as 1 (weak binding :<4000) and the “Inhibition Capacity” value [2] is reported as 1 (Weaker than original epitope (OD of 10 ug peptide below 3 times of original peptide)).

For EELRHSVC [p4746], the “Binding Capacity” value [1] was 3 (strong binding :>20000) and the “Inhibition Capacity” value [2] was 1 (Weaker than original epitope (OD of 10 ug peptide below 3 times of original peptide)).

For HEFRHC [p4803], the “Binding Capacity” value [1] was 3 (strong binding :>20000) and the “Inhibition Capacity” value [2] was 2 (strong inhibition (as original epitope; OD of 10 ug peptide below 2 times of original peptide)).

For QFKHDLC [p4391], the “Binding Capacity” value [1] was 2 (medium binding :4000-20000) and the “Inhibition Capacity” value [2] was 1 (Weaker than original epitope (OD of 10 ug peptide below 3 times of original peptide)).

TPFRHTC [p4384] was tested, and the “Binding Capacity” value [1] was 2 (medium binding :4000-20000) and the “Inhibition Capacity” value [2] was 1 (Weaker than original epitope (OD of 10 ug peptide below 3 times of original peptide)).

In the case of DGLLFKHC [p4741], the “Binding Capacity” value [1] is reported as 3 (strong binding :>20000) and the “Inhibition Capacity” value [2] is reported as 1 (Weaker than original epitope (OD of 10 ug peptide below 3 times of original peptide)).

SHFRHGC [p4389] was tested, and the “Binding Capacity” value [1] was 2 (medium binding :4000-20000) and the “Inhibition Capacity” value [2] was 1 (Weaker than original epitope (OD of 10 ug peptide below 3 times of original peptide)).

SEFKHC [p4801] was tested, and the “Binding Capacity” value [1] was 3 (strong binding :>20000) and the “Inhibition Capacity” value [2] was 1 (Weaker than original epitope (OD of 10 ug peptide below 3 times of original peptide)).

With CSEFKH [p4800] the “Binding Capacity” value [1] was 3 (strong binding :>20000) and the “Inhibition Capacity” value [2] was 2 (strong inhibition (as original epitope; OD of 10 ug peptide below 2 times of original peptide)).

With EEFKYSC [p4393] the “Binding Capacity” value [1] was 2 (medium binding :4000-20000) and the “Inhibition Capacity” value [2] was 1 (Weaker than original epitope (OD of 10 ug peptide below 3 times of original peptide)).

In the case of QDFRHYC [p4380], the “Binding Capacity” value [1] is reported as 2 (medium binding :4000-20000) and the “Inhibition Capacity” value [2] is reported as 1 (Weaker than original epitope (OD of 10 ug peptide below 3 times of original peptide)).

With SAFRHHC [p4387] the “Binding Capacity” value [1] was 2 (medium binding :4000-20000) and the “Inhibition Capacity” value [2] was 1 (Weaker than original epitope (OD of 10 ug peptide below 3 times of original peptide)).

In the case of GELWFPC [p4673], the OD halfmax dilution factor of the parental antibody (1:X) (dilutionfactor(1:x)) [3] is reported as over 320000.

GQIRFDHC [p4669] gave an OD halfmax dilution factor of the parental antibody (1:X) (dilutionfactor(1:x)) [3] of over 320000.

TGLMFKHC [p4736] was tested, and the OD halfmax 1:X (dilution factor of the parental antibody at half-maximal OD) (dilutionfactor(1:x)) [4] was 4000 to 20000.

For MLPFRHGC [p4731], the OD halfmax 1:X (dilution factor of the parental antibody at half-maximal OD) (dilutionfactor(1:x)) [4] was 4000 to 20000.

With NELFKHFC [p4727] the OD halfmax 1:X (dilution factor of the parental antibody at half-maximal OD) (dilutionfactor(1:x)) [4] was 4000 to 20000.

Work on SAMRHSLC [p4732] yielded an OD halfmax 1:X (dilution factor of the parental antibody at half-maximal OD) (dilutionfactor(1:x)) [4] of 4000 to 20000.

With HMRMYFEC [p4687] the OD halfmax dilution factor of the parental antibody (1:X) (dilutionfactor(1:x)) [3] was over 320000.

TYFSHSLC [p4718] gave an OD halfmax 1:X (dilution factor of the parental antibody at half-maximal OD) (dilutionfactor(1:x)) [4] of 4000 to 20000.

For GEILFGMC [p4689], the OD halfmax dilution factor of the parental antibody (1:X) (dilutionfactor(1:x)) [3] was over 320000.

For GEIRFALC [p4678], the OD halfmax dilution factor of the parental antibody (1:X) (dilutionfactor(1:x)) [3] was over 320000.

In the case of LQFKHSTC [p4734], the OD halfmax 1:X (dilution factor of the parental antibody at half-maximal OD) (dilutionfactor(1:x)) [4] is reported as 4000 to 20000.

With GELQFPPC [p4672] the OD halfmax dilution factor of the parental antibody (1:X) (dilutionfactor(1:x)) [3] was over 320000.

AYFPHTSC [p4751] was tested, and the OD halfmax 1:X (dilution factor of the parental antibody at half-maximal OD) (dilutionfactor(1:x)) [4] was 4000 to 20000.

For AEFMHSVC [p4739], the OD halfmax 1:X (dilution factor of the parental antibody at half-maximal OD) (dilutionfactor(1:x)) [4] was 4000 to 20000.

In the case of SHQRLWFC [p4674], the OD halfmax dilution factor of the parental antibody (1:X) (dilutionfactor(1:x)) [3] is reported as over 320000.

In the case of GQIQFPLC [p4697], the OD halfmax dilution factor of the parental antibody (1:X) (dilutionfactor(1:x)) [3] is reported as over 320000.

GELYFRAC [p4677] was tested, and the OD halfmax dilution factor of the parental antibody (1:X) (dilutionfactor(1:x)) [3] was over 320000.

In the case of GDLKFPLC [p4683], the OD halfmax dilution factor of the parental antibody (1:X) (dilutionfactor(1:x)) [3] is reported as over 320000.

In the case of NDAKIVFC [p4667], the OD halfmax dilution factor of the parental antibody (1:X) (dilutionfactor(1:x)) [3] is reported as over 320000.

Molecule SLMRHSSC [p4721] has an OD halfmax 1:X (dilution factor of the parental antibody at half-maximal OD) (dilutionfactor(1:x)) [4] of 4000 to 20000.

Work on GEIQFGAC [p4699] yielded an OD halfmax dilution factor of the parental antibody (1:X) (dilutionfactor(1:x)) [3] of over 320000.

Molecule GMIVFPHC [p4679] has an OD halfmax dilution factor of the parental antibody (1:X) (dilutionfactor(1:x)) [3] of over 320000.

THQRLWFC [p4693] was tested, and the OD halfmax dilution factor of the parental antibody (1:X) (dilutionfactor(1:x)) [3] was over 320000.

In the case of GQIMFPRC [p4686], the OD halfmax dilution factor of the parental antibody (1:X) (dilutionfactor(1:x)) [3] is reported as over 320000.

For GEIRFGSC [p4696], the OD halfmax dilution factor of the parental antibody (1:X) (dilutionfactor(1:x)) [3] was over 320000.

Work on GEMQFFIC [p4676] yielded an OD halfmax dilution factor of the parental antibody (1:X) (dilutionfactor(1:x)) [3] of over 320000.

In the case of GEIYFERC [p4681], the OD halfmax dilution factor of the parental antibody (1:X) (dilutionfactor(1:x)) [3] is reported as over 320000.

In the case of GQLKFPFC [p4690], the OD halfmax dilution factor of the parental antibody (1:X) (dilutionfactor(1:x)) [3] is reported as over 320000.

For GEIKFDHC [p4698], the OD halfmax dilution factor of the parental antibody (1:X) (dilutionfactor(1:x)) [3] was over 320000.

For SQYFPRPC [p4729], the OD halfmax 1:X (dilution factor of the parental antibody at half-maximal OD) (dilutionfactor(1:x)) [4] was 4000 to 20000.

Molecule GELFFPKC [p4685] has an OD halfmax dilution factor of the parental antibody (1:X) (dilutionfactor(1:x)) [3] of over 320000.

GEIWFEGC [p4680] showed an OD halfmax dilution factor of the parental antibody (1:X) (dilutionfactor(1:x)) [3] of over 320000.

In the case of GQIKFAQC [p4694], the OD halfmax dilution factor of the parental antibody (1:X) (dilutionfactor(1:x)) [3] is reported as over 320000.

AEFSHWHC [p4737] showed an OD halfmax 1:X (dilution factor of the parental antibody at half-maximal OD) (dilutionfactor(1:x)) [4] of 4000 to 20000.

For HQKMIFAC [p4675], the OD halfmax dilution factor of the parental antibody (1:X) (dilutionfactor(1:x)) [3] was over 320000.

Work on ATFRHSTC [p4735] yielded an OD halfmax 1:X (dilution factor of the parental antibody at half-maximal OD) (dilutionfactor(1:x)) [4] of 4000 to 20000.

With IGFRHDSC [p4742] the OD halfmax 1:X (dilution factor of the parental antibody at half-maximal OD) (dilutionfactor(1:x)) [4] was 4000 to 20000.

GEMWFALC [p4671] gave an OD halfmax dilution factor of the parental antibody (1:X) (dilutionfactor(1:x)) [3] of over 320000.

GQILFPVC [p4684] showed an OD halfmax dilution factor of the parental antibody (1:X) (dilutionfactor(1:x)) [3] of over 320000.

Work on HMRLFFNC [p4670] yielded an OD halfmax dilution factor of the parental antibody (1:X) (dilutionfactor(1:x)) [3] of over 320000.

Reference: patent publication US20130287807A1, “COMPOUNDS FOR TREATING SYMPTOMS ASSOCIATED WITH PARKINSON'S DISEASE” (priority 2008, published 2013)
